Results reported in US20230203202A1 (DRAGONFLY THERAPEUTICS, published 2023).

T1: human 5T4 on the cell surface (human, UniProt Q13641 32-420)
T1 construct: whole, on cells; also called h5T4; TPBG
T1 sequence (looked up): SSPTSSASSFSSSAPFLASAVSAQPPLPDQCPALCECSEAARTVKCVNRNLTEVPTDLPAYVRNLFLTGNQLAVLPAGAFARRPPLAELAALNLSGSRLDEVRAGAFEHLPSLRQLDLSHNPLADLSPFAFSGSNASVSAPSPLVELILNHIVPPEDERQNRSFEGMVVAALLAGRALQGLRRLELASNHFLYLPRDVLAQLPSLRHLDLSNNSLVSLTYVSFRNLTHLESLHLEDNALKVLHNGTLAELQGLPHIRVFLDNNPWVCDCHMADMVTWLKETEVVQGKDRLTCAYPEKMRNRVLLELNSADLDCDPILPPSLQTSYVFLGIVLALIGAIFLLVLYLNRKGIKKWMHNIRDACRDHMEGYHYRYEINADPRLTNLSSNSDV


What follows are binders tested against T1, human 5T4 on the cell surface (assay: cell binding assay on 5T4-expressing tumor cells (cell line not given)).

Row | Binder | EC50 [nM] | Max Fold Over Background (FOB) [fold over background]
1 | AB1889-TriNKET® (bispecific antibody, human IgG1, kappa, F3′ format; also called AB1889-VL-VH TriNKET®; 11F09-IGHV3-48*01 BM2-YB) DIQLTQSPSSLSASVGDRVTITCRASQGVSTSTYTYMHWFQQKPGKAPKLLIKFASNLESGVPSRFSGSGSGTDFTLTISSLQPEDFATYYCQHSWEIPWTFGCGTKVEIKGGGGSGGGGSGGGGSGGGGSEVQLVESGGGLVQPGGSLRLSCAASGFTFSDYGMHWVRQAPGKCLEWLAYISSGSSTFYYADTVKGRFTISRDNAKNSLYLQMNSLRAEDTAVYYCGSSQSYYRGTMDYWGQGTTVTVSSGSDKTHTCPPCPAPELLGGPSVFLFPPKPKDTLMISRTPEVTCVVVDVSHEDPEVKFNWYVDGVEVHNAKTKPREEQYNSTYRVVSVLTVLHQDWLNGKEYKCKVSNKALPAPIEKTISKAKGQPREPRVYTLPPCRDELTKNQVSLTCLVKGFYPSDIAVEWESNGQPENNYKTTPPVLVSDGSFTLYSKLTVDKSRWQQGNVFSCSVMHEALHNHYTQKSLSLSPG heavy: EVQLVESGGGLVKPGGSLRLSCAASGFTFSSYSMNWVRQAPGKGLEWVSSISSSSSYIYYADSVKGRFTISRDNAKNSLYLQMNSLRAEDTAVYYCARGAPIGAAAGWFDPWGQGTLVTVSSASTKGPSVFPLAPSSKSTSGGTAALGCLVKDYFPEPVTVSWNSGALTSGVHTFPAVLQSSGLYSLSSVVTVPSSSLGTQTYICNVNHKPSNTKVDKKVEPKSCDKTHTCPPCPAPELLGGPSVFLFPPKPKDTLMISRTPEVTCVVVDVSHEDPEVKFNWYVDGVEVHNAKTKPREEQYNSTYRVVSVLTVLHQDWLNGKEYKCKVSNKALPAPIEKTISKAKGQPREPQVCTLPPSRDELTENQVSLTCLVKGFYPSDIAVEWESNGQPENNYKTTPPVLDSDGSFFLYSWLTVDKSRWQQGNVFSCSVMHEALHNHYTQKSLSLSPG light: DIQMTQSPSSVSASVGDRVTITCRASQGISSWLAWYQQKPGKAPKLLIYAASSLQSGVPSRFSGSGSGTDFTLTISSLQPEDFATYYCQQGVSFPRTFGGGTKVEIKRTVAAPSVFIFPPSDEQLKSGTASVVCLLNNFYPREAKVQWKVDNALQSGNSQESVTEQDSKDSTYSLSSTLTLSKADYEKHKVYACEVTHQGLSSPVTKSFNRGEC | 20.7 | 11.7
2 | AB1880-TriNKET® (bispecific antibody, human IgG1, kappa, F3′ format; also called AB1880-VL-VH TriNKET®; 11F09-IGHV3-21*05 BM2-YB) DIQLTQSPSSLSASVGDRVTITCRASQGVSTSTYTYMHWFQQKPGKAPKLLIKFASNLESGVPSRFSGSGSGTDFTLTISSLQPEDFATYYCQHSWEIPWTFGCGTKVEIKGGGGSGGGGSGGGGSGGGGSEVQLVESGGGLVKPGGSLRLSCEASGFTFSDYGMHWVRQAPGKCLEWLAYISSGSSTFYYADTVKGRFTISRDNAKNSLYLQMNSLRAEDTAVYYCGSSQSYYRGTMDYWGQGTTVTVSSGSDKTHTCPPCPAPELLGGPSVFLFPPKPKDTLMISRTPEVTCVVVDVSHEDPEVKFNWYVDGVEVHNAKTKPREEQYNSTYRVVSVLTVLHQDWLNGKEYKCKVSNKALPAPIEKTISKAKGQPREPRVYTLPPCRDELTKNQVSLTCLVKGFYPSDIAVEWESNGQPENNYKTTPPVLVSDGSFTLYSKLTVDKSRWQQGNVFSCSVMHEALHNHYTQKSLSLSPG heavy: EVQLVESGGGLVKPGGSLRLSCAASGFTFSSYSMNWVRQAPGKGLEWVSSISSSSSYIYYADSVKGRFTISRDNAKNSLYLQMNSLRAEDTAVYYCARGAPIGAAAGWFDPWGQGTLVTVSSASTKGPSVFPLAPSSKSTSGGTAALGCLVKDYFPEPVTVSWNSGALTSGVHTFPAVLQSSGLYSLSSVVTVPSSSLGTQTYICNVNHKPSNTKVDKKVEPKSCDKTHTCPPCPAPELLGGPSVFLFPPKPKDTLMISRTPEVTCVVVDVSHEDPEVKFNWYVDGVEVHNAKTKPREEQYNSTYRVVSVLTVLHQDWLNGKEYKCKVSNKALPAPIEKTISKAKGQPREPQVCTLPPSRDELTENQVSLTCLVKGFYPSDIAVEWESNGQPENNYKTTPPVLDSDGSFFLYSWLTVDKSRWQQGNVFSCSVMHEALHNHYTQKSLSLSPG light: DIQMTQSPSSVSASVGDRVTITCRASQGISSWLAWYQQKPGKAPKLLIYAASSLQSGVPSRFSGSGSGTDFTLTISSLQPEDFATYYCQQGVSFPRTFGGGTKVEIKRTVAAPSVFIFPPSDEQLKSGTASVVCLLNNFYPREAKVQWKVDNALQSGNSQESVTEQDSKDSTYSLSSTLTLSKADYEKHKVYACEVTHQGLSSPVTKSFNRGEC | 21.7 | 48.5
3 | AB1883-TriNKET® (bispecific antibody, human IgG1, kappa, F3′ format; also called AB1883-VL-VH TriNKET®; 11F09-IGHV3-11*01 BM2-YB) DIQLTQSPSSLSASVGDRVTITCRASQGVSTSTYTYMHWFQQKPGKAPKLLIKFASNLESGVPSRFSGSGSGTDFTLTISSLQPEDFATYYCQHSWEIPWTFGCGTKVEIKGGGGSGGGGSGGGGSGGGGSQVQLVESGGGLVKPGGSLRLSCAASGFTFSDYGMHWVRQAPGKCLEWLAYISSGSSTFYYADTVKGRFTISRDNAKNSLYLQMNSLRAEDTAVYYCGSSQSYYRGTMDYWGQGTTVTVSSGSDKTHTCPPCPAPELLGGPSVFLFPPKPKDTLMISRTPEVTCVVVDVSHEDPEVKFNWYVDGVEVHNAKTKPREEQYNSTYRVVSVLTVLHQDWLNGKEYKCKVSNKALPAPIEKTISKAKGQPREPRVYTLPPCRDELTKNQVSLTCLVKGFYPSDIAVEWESNGQPENNYKTTPPVLVSDGSFTLYSKLTVDKSRWQQGNVFSCSVMHEALHNHYTQKSLSLSPG heavy: EVQLVESGGGLVKPGGSLRLSCAASGFTFSSYSMNWVRQAPGKGLEWVSSISSSSSYIYYADSVKGRFTISRDNAKNSLYLQMNSLRAEDTAVYYCARGAPIGAAAGWFDPWGQGTLVTVSSASTKGPSVFPLAPSSKSTSGGTAALGCLVKDYFPEPVTVSWNSGALTSGVHTFPAVLQSSGLYSLSSVVTVPSSSLGTQTYICNVNHKPSNTKVDKKVEPKSCDKTHTCPPCPAPELLGGPSVFLFPPKPKDTLMISRTPEVTCVVVDVSHEDPEVKFNWYVDGVEVHNAKTKPREEQYNSTYRVVSVLTVLHQDWLNGKEYKCKVSNKALPAPIEKTISKAKGQPREPQVCTLPPSRDELTENQVSLTCLVKGFYPSDIAVEWESNGQPENNYKTTPPVLDSDGSFFLYSWLTVDKSRWQQGNVFSCSVMHEALHNHYTQKSLSLSPG light: DIQMTQSPSSVSASVGDRVTITCRASQGISSWLAWYQQKPGKAPKLLIYAASSLQSGVPSRFSGSGSGTDFTLTISSLQPEDFATYYCQQGVSFPRTFGGGTKVEIKRTVAAPSVFIFPPSDEQLKSGTASVVCLLNNFYPREAKVQWKVDNALQSGNSQESVTEQDSKDSTYSLSSTLTLSKADYEKHKVYACEVTHQGLSSPVTKSFNRGEC | 6.02 | 69.4

The next lines start with the values.

Row | EC50 [nM] | Max Fold Over Background (FOB) [fold over background] | Binder
4 | 9.18 | 62.9 | AB1879-TriNKET® (bispecific antibody, human IgG1, kappa, F3′ format; also called AB1879-VL-VH TriNKET®; 11F09-IGHV3-48*01 BM1-YB) DIQLTQSPSSLSASVGDRVTITCRASQGVSTSTYTYMHWFQQKPGKAPKLLIKFASNLESGVPSRFSGSGSGTDFTLTISSLQPEDFATYYCQHSWEIPWTFGCGTKVEIKGGGGSGGGGSGGGGSGGGGSEVQLVESGGGLVQPGGSLRLSCAASGFTFSDYGMHWVRQAPGKCLEWVSYISSGSSTFYYADTVKGRFTISRDNAKNSLYLQMNSLRAEDTAVYYCGSSQSYYRGTMDYWGQGTTVTVSSGSDKTHTCPPCPAPELLGGPSVFLFPPKPKDTLMISRTPEVTCVVVDVSHEDPEVKFNWYVDGVEVHNAKTKPREEQYNSTYRVVSVLTVLHQDWLNGKEYKCKVSNKALPAPIEKTISKAKGQPREPRVYTLPPCRDELTKNQVSLTCLVKGFYPSDIAVEWESNGQPENNYKTTPPVLVSDGSFTLYSKLTVDKSRWQQGNVFSCSVMHEALHNHYTQKSLSLSPG heavy: EVQLVESGGGLVKPGGSLRLSCAASGFTFSSYSMNWVRQAPGKGLEWVSSISSSSSYIYYADSVKGRFTISRDNAKNSLYLQMNSLRAEDTAVYYCARGAPIGAAAGWFDPWGQGTLVTVSSASTKGPSVFPLAPSSKSTSGGTAALGCLVKDYFPEPVTVSWNSGALTSGVHTFPAVLQSSGLYSLSSVVTVPSSSLGTQTYICNVNHKPSNTKVDKKVEPKSCDKTHTCPPCPAPELLGGPSVFLFPPKPKDTLMISRTPEVTCVVVDVSHEDPEVKFNWYVDGVEVHNAKTKPREEQYNSTYRVVSVLTVLHQDWLNGKEYKCKVSNKALPAPIEKTISKAKGQPREPQVCTLPPSRDELTENQVSLTCLVKGFYPSDIAVEWESNGQPENNYKTTPPVLDSDGSFFLYSWLTVDKSRWQQGNVFSCSVMHEALHNHYTQKSLSLSPG light: DIQMTQSPSSVSASVGDRVTITCRASQGISSWLAWYQQKPGKAPKLLIYAASSLQSGVPSRFSGSGSGTDFTLTISSLQPEDFATYYCQQGVSFPRTFGGGTKVEIKRTVAAPSVFIFPPSDEQLKSGTASVVCLLNNFYPREAKVQWKVDNALQSGNSQESVTEQDSKDSTYSLSSTLTLSKADYEKHKVYACEVTHQGLSSPVTKSFNRGEC
5 | 18.5 | 22.1 | AB1888-TriNKET® (bispecific antibody, human IgG1, kappa, F3′ format; also called AB1888-VL-VH TriNKET®; 11F09-IGHV3-21*05 BM1-YB) DIQLTQSPSSLSASVGDRVTITCRASQGVSTSTYTYMHWFQQKPGKAPKLLIKFASNLESGVPSRFSGSGSGTDFTLTISSLQPEDFATYYCQHSWEIPWTFGCGTKVEIKGGGGSGGGGSGGGGSGGGGSEVQLVESGGGLVKPGGSLRLSCAASGFTFSDYGMHWVRQAPGKCLEWVSYISSGSSTFYYADTVKGRFTISRDNAKNSLYLQMNSLRAEDTAVYYCGSSQSYYRGTMDYWGQGTTVTVSSGSDKTHTCPPCPAPELLGGPSVFLFPPKPKDTLMISRTPEVTCVVVDVSHEDPEVKFNWYVDGVEVHNAKTKPREEQYNSTYRVVSVLTVLHQDWLNGKEYKCKVSNKALPAPIEKTISKAKGQPREPRVYTLPPCRDELTKNQVSLTCLVKGFYPSDIAVEWESNGQPENNYKTTPPVLVSDGSFTLYSKLTVDKSRWQQGNVFSCSVMHEALHNHYTQKSLSLSPG heavy: EVQLVESGGGLVKPGGSLRLSCAASGFTFSSYSMNWVRQAPGKGLEWVSSISSSSSYIYYADSVKGRFTISRDNAKNSLYLQMNSLRAEDTAVYYCARGAPIGAAAGWFDPWGQGTLVTVSSASTKGPSVFPLAPSSKSTSGGTAALGCLVKDYFPEPVTVSWNSGALTSGVHTFPAVLQSSGLYSLSSVVTVPSSSLGTQTYICNVNHKPSNTKVDKKVEPKSCDKTHTCPPCPAPELLGGPSVFLFPPKPKDTLMISRTPEVTCVVVDVSHEDPEVKFNWYVDGVEVHNAKTKPREEQYNSTYRVVSVLTVLHQDWLNGKEYKCKVSNKALPAPIEKTISKAKGQPREPQVCTLPPSRDELTENQVSLTCLVKGFYPSDIAVEWESNGQPENNYKTTPPVLDSDGSFFLYSWLTVDKSRWQQGNVFSCSVMHEALHNHYTQKSLSLSPG light: DIQMTQSPSSVSASVGDRVTITCRASQGISSWLAWYQQKPGKAPKLLIYAASSLQSGVPSRFSGSGSGTDFTLTISSLQPEDFATYYCQQGVSFPRTFGGGTKVEIKRTVAAPSVFIFPPSDEQLKSGTASVVCLLNNFYPREAKVQWKVDNALQSGNSQESVTEQDSKDSTYSLSSTLTLSKADYEKHKVYACEVTHQGLSSPVTKSFNRGEC
